Source: patent US20250332297A1, “DLL3-SPECIFIC BINDING CONSTRUCTS AND THEIR USE IN RADIOTHERAPY” (MOLECULAR PARTNERS AG, priority 2024, published 2025)

How the values were obtained:
[1] = system: NCI-H82 lung carcinoma cells; test: Internalization in NCI-H82 cells; format: cell-based, human; details: AF488 label with anti-AF488 quencher, 37° C.
Description: (§1) Studies were performed to determine whether a half-life extended DLL3-specific ankyrin repeat protein, as described herein, is internalized upon binding to cells expressing DLL3 on their surface. The specific ankyrin repeat protein tested was MAM279 (SEQ ID NO: 11) (with a Glycine-Serine (GS) at its N-terminal end). […] As a comparison, internalization was also tested for Rova antibody. Internalization was investigated on different cell types expressing DLL3 on their surface, namely SHP-77 lung carcinoma cells, NCI-H82 lung carcinoma cells, and hDLL3-expressing MC38 (MC38-hDLL3) colon carcinoma cells. In brief, DARPin and antibody were pre-incubated and labelled with fluorescently labelled detection antibodies (Fab-AF488) and added to 5×10^4 cells/well in a 96-well plate (100 nM DARPin, 10 nM antibody control) and incubated for 1h on ice. Cells were washed once with PBS and then incubated for different timepoints (0 min, 15 min, 30 min, 1 h and/or 4 h) at 37° C. in PBS with 2% FCS. […] Raw fcs files were exported and analyzed using FlowJo software. MFI values of live AF488-positive cells were exported from FlowJo and plotted using GraphPad Prism software. % internalization was determined by normalizing to non-binding control DARPin (for MAM279) or non-binding isotype control IgG (for Rova). […]

[2] = system: SHP-77 lung carcinoma cells; test: Internalization in SHP-77 cells; format: cell-based, human; details: AF488 label with anti-AF488 quencher, 37° C.
Description: as §1

[3] = system: hDLL3-expressing MC38 (MC38-hDLL3) colon carcinoma cells; test: Internalization in MC38-hDLL3 cells; format: cell-based; details: AF488 label with anti-AF488 quencher, 37° C.
Description: as §1

Human DLL3-ECD = biological target: T1, Human DLL3-ECD (Homo sapiens, UniProt Q9NYJ7); test: SPR binding to human DLL3-ECD (Example 11); details: immobilized biotinylated target, 1:1 Langmuir, Tables 14, 15
T1 construct: human DLL3 protein (Q9NYJ7, Gene ID: 10683, residues 27 to 466) linked via an Avi-tag; 3C protease recognition site (C); Fc knob into hole (C); purchased Evitria; host or cells: CHO cells
T1 sequence (Q9NYJ7 27-466): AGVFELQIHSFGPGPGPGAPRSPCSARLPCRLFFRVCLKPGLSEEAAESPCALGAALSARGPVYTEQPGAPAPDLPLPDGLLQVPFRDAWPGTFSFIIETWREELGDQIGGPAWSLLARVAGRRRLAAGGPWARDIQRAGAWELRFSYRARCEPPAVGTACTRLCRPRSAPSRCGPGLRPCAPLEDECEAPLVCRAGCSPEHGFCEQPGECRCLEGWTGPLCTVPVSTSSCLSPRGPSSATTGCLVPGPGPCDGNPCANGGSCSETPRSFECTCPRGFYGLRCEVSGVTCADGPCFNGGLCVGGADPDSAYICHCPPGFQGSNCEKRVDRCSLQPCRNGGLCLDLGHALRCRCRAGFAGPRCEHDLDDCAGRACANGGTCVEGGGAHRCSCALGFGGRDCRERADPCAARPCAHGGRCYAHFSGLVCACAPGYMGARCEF
Source text: Two target formats were chosen: i) the first target protein consisted of the extracellular domain of human DLL3 protein (Q9NYJ7, Gene ID: 10683, residues 27 to 466) linked via an Avi-tag (for site-directed biotinylation), followed by a 3C protease recognition site, to a Fc knob into hole (hDLL3-Avi-Fckih); ii) the second target protein consisted of a very similar design including more residues of the extracellular domain of DLL3 (Q9NYJ7, Gene ID: 10683, res 27-470), directly linked to the Fc knob into hole domain followed by an Avi-tag (hDLL3-Fckih-Avi).
hDLL3-Avi-Fckih was expressed in CHO cells (Chinese hamster ovary cells) by Evitria and purified by a protein A derivative-based affinity chromatography followed by preparative size-exclusion chromatography (SEC). The material was up-concentrated in PBS pH 7.4 to 0.69 mg/ml and in vitro biotinylated using recombinant BirA. The final material was monomeric on size exclusion and stored in PBS pH 7.4 at the final concentration of 0.35 mg/ml.
The binding of 2D ankyrin repeat protein MAM279 as well as of MAM279 conjugated to the chelator DOTAM (the conjugation was performed as described in Example 3) to different target proteins was analyzed by Surface Plasmon Resonance (SPR). Specifically, the proteins analyzed were (i) MAM279 (SEQ ID NO: 11), with a Glycine-Serine (GS) at its N-terminal end and an N-terminal His-tag (SEQ ID NO: 19); and (ii) MAM279 (SEQ ID NO: 11), with a Glycine-Serine (GS) at its N-terminal end and a tag (SEQ ID NO: 10) at its C-terminal end (resulting in GS-MAM279-tag (SEQ ID NO: 15)), conjugated to the chelator DOTAM as described in Example 3.
A surface plasmon resonance (SPR) assay was used to determine the binding kinetics of the two proteins (i.e. MAM279 with and without conjugation to chelator) to different targets: the Extra-Cellular Domain (ECD) of human DLL3, the ECD of cynomolgus monkey DLL3, the N-Terminal Domain (NTD) only of human DLL3, and the NTD dog DLL3. The data were generated using BioRad ProteOn instrument in SPR running buffer (PBS, pH 7.4 containing 0.005% Tween 20©). […] The chip was coated with biotinylated target to reach a signal intensity of 1516 RU (human ECD), 257 RU (human NTD), 1500 RU (cyno ECD) and 228 RU (dog NTD). All analytes (various concentrations in 3-fold dilutions ranging from 500-6.17 nM) were injected in succession for 240 s (100 μl/min) and dissociation was recorded for 10800 s (100 μl/min). Each injection was followed by a regeneration step with 16 mM H3PO4 for 18 s. […] The obtained SPR traces were used to determine on-rate and off-rate interaction parameters.

B1: Rova: Rova antibody, DLL3-binding benchmark antibody used as positive control and comparison (antibody, chains of the INN, looked up, V domains shown)
VH: QVQLVQSGAEVKKPGASVKVSCKASGYTFTNYGMNWVRQAPGQGLEWMGWINTYTGEPTYADDFKGRVTMTTDTSTSTAYMELRSLRSDDTAVYYCARIGDSSPSDYWGQGTLVTVSS
VL: EIVMTQSPATLSVSPGERATLSCKASQSVSNDVVWYQQKPGQAPRLLIYYASNRYTGIPARFSGSGSGTEFTLTISSLQSEDFAVYYCQQDYTSPWTFGQGTKLEIK
In the case of B1, the internalization [1] is reported as “internalization”, the internalization [2] is reported as “internalization” and the internalization [3] is reported as “internalization”.

B2: MAM279: Two domain (2D) ankyrin repeat protein: serum albumin-specific domain (SEQ ID NO: 7), PT linker, DLL3-specific domain of MAM093 (protein)
chain: DLGKKLLEAARAGQDDEVRELLKAGADVNAKDYFSHTPLHLAARNGHLKIVEVLLKAGADVNAKDFAGKTPLHLAADAGHLEIVEVLLKAGADVNAQDIFGKTPADIAADAGHEDIAEVLQKAAGSPTPTPTTPTPTPTTPTPTPTGSDLGKKLLAAAAQGQDDEVRELLKAGANVNAKDLFGYTPLHLAAWRGHLEIVEVLLKAGADVNAKDAAGETPLHLAAWFGHLEIVEVLLKAGADVNAQDLQGKTPADLAAKEGHEDIAEVLQKAA
modifications: Ankyrin repeat protein (MAM279)
B2 was tested, and the Kd (Human DLL3-ECD) was 0.174 nM, the “Koff Human DLL3-ECD” value (Human DLL3-ECD) was 1.45e-05 s⁻¹ and the “Kon Human DLL3-ECD” value (Human DLL3-ECD) was 83500 M⁻¹ s⁻¹. For the same molecule, the internalization [1] was “similarly internalized”, the internalization [2] was “similarly internalized” and the internalization [3] was “similarly internalized”.

B3: MAM279-DOTAM: GS-MAM279-tag (SEQ ID NO: 15) conjugated to the chelator DOTAM via C-terminal tag and maleimide connector, no radionuclide (conjugate)
chain: GSDLGKKLLEAARAGQDDEVRELLKAGADVNAKDYFSHTPLHLAARNGHLKIVEVLLKAGADVNAKDFAGKTPLHLAADAGHLEIVEVLLKAGADVNAQDIFGKTPADIAADAGHEDIAEVLQKAAGSPTPTPTTPTPTPTTPTPTPTGSDLGKKLLAAAAQGQDDEVRELLKAGANVNAKDLFGYTPLHLAAWRGHLEIVEVLLKAGADVNAKDAAGETPLHLAAWFGHLEIVEVLLKAGADVNAQDLQGKTPADLAAKEGHEDIAEVLQKAAGSGSC
modifications: DOTAM chelator via maleimide on C-terminal tag; Ankyrin repeat protein with tag (GS-MAM279-tag)
In the case of B3, the “Koff Human DLL3-ECD” value (Human DLL3-ECD) is reported as 1.64e-05 s⁻¹ and the “Kon Human DLL3-ECD” value (Human DLL3-ECD) is reported as 67400 M⁻¹ s⁻¹.
